Among the data in paper PMC4500674 (Archives of biochemistry and biophysics, 2015) are Kd values, retold here.

This assay deals with T1, human Mia40, wild type, short linker form (human, UniProt Q8N4Q1 1-142).
T1 sequence: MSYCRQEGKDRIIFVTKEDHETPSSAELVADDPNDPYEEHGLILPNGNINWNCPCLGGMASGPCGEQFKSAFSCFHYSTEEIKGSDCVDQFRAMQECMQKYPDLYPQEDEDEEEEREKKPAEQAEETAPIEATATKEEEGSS
Description: stopped-flow fluorescence kinetics.

B1: reduced bovine pancreatic ribonuclease A (natural protein, UniProt P61823 27-150, looked up)
chain: KETAAAKFERQHMDSSTSAASSSNYCNQMMKSRNLTKDRCKPVNTFVHESLADVQAVCSQKNVACKNGQTNCYQSYSTMSITDCRETGSSKYPNCAYKTTQANKHIIVACEGNPYVPVHFDASV
B1: binding was put at a Kd of 10.4 ± 0.2 µM.

One may read the Kd as the constant that tells how readily two partners part at equilibrium.
